From patent US20260001947A1

Molecular target: human PD-L1 extracellular domain protein displayed on the membrane of MC38-PD-L1 cells (human) (UniProt Q9NZQ7)
Assay: flow cytometry on MC38-PD-L1 cells, directly PE-labelled antibody, 0.5 µl; Blank-PE shows 0.13% in the same gate

Sequence of human PD-L1 extracellular domain protein displayed on the membrane of MC38-PD-L1 cells (human) (Q9NZQ7 19-238): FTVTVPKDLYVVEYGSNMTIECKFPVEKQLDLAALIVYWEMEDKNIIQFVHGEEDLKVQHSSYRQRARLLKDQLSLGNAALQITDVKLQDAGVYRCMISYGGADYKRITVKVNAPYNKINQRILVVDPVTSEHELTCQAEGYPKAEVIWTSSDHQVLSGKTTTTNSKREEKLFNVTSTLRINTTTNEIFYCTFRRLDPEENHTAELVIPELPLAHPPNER

% of cells in gate M6-2: 99.4%
Substance: PE anti-human PD-L1 (BioLegend, clone number: 29E-2A3) (antibody)
